Assay results: patent US20240247080A1, “GLP1/GIP/NPY2 RECEPTOR TRIPLE AGONISTS” (Boehringer Ingelheim International GmbH, priority 2022, published 2024)
Residue numbers refer to the chain shown, from its start. Starred links: 1 amine or outer side, 2 acyl side, 3 side chain; linkers in the order of their positions; H or OH if unused. Non-standard residues stand in square brackets, D forms with d. Groups on a side chain read outwards from the residue. No end group written: not given here. *: point of attachment. C20 diacid = O=C(O)CCCCCCCCCCCCCCCCCCC(=O)*; C18 diacid = O=C(O)CCCCCCCCCCCCCCCCC(=O)*; γGlu = O=C(O)[C@H](CCC(=O)[*:2])N[*:1]; εLys = N[C@@H](CCCCN[*:1])C(=O)[*:2]; AEEA = NCCOCCOCC(=O)O; Aib = CC(C)(N)C(=O)O

T1: human GIP receptor (human, UniProt P48546 22-466)
T1 sequence (looked up): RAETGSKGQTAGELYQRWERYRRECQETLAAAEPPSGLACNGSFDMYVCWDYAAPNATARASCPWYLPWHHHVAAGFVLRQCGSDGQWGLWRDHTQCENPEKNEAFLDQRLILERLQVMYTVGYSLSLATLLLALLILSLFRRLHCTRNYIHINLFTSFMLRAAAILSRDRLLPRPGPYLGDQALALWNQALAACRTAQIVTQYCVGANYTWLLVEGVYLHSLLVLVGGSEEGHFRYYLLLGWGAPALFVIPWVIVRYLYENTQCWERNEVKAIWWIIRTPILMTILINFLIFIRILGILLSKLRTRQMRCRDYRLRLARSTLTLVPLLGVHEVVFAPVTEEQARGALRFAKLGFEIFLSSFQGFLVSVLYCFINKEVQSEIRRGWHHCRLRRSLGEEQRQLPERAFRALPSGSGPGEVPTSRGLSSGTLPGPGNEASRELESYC

T2: human neuropeptide Y2 (NPY2) receptor (human, UniProt P49146 1-381)
T2 sequence (looked up): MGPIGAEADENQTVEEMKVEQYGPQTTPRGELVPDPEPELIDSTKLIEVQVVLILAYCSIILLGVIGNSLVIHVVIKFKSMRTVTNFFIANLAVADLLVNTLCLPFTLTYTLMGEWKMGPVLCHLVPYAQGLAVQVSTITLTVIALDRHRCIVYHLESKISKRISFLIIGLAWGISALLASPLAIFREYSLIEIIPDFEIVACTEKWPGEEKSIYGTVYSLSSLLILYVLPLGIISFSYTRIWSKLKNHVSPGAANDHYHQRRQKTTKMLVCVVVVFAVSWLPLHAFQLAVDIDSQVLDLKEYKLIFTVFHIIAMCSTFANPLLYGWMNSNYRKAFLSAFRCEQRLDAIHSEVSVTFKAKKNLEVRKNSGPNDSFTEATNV

B1: Compound 57 (peptide)
peptide: Y[Aib]EGTFTSDYSI[Aib]LEKQAQ[Aib]AFVQWLIK([AEEA-AEEA-γGlu-γGlu-γGlu-γGlu-C18 diacid])GGPEEPASLRHYYNWLTRQRY-NH2
modifications: also: TFA salt
B2: Compound 65 (peptide)
peptide: Y[Aib]EGTFTSDYSI[Aib]LEKQAQ[Aib]AFVEWLIK([γGlu-γGlu-γGlu-γGlu-γGlu-γGlu-C20 diacid])GGGSEYVSLRHYYNWLTRQRY-NH2
modifications: also: TFA salt
B3: Compound 58 (peptide)
peptide: Y[Aib]EGTFTSDYSI[Aib]LEKQAQ[Aib]AFVQWLIK([AEEA-AEEA-γGlu-γGlu-γGlu-γGlu-C18 diacid])GGPESGASLRHYYNWLTRQRY-NH2
modifications: also: TFA salt
B4: Compound 61 (peptide)
peptide: Y[Aib]EGTFTSDYSI[Aib]LEKQAQ[Aib]AFVQWLIK([εLys-γGlu-γGlu-γGlu-γGlu-γGlu-C20 diacid])GGPESGASLRHYYNWLTRQRY-NH2
modifications: also: TFA salt
B5: Compound 54 (peptide)
peptide: Y[Aib]EGTFTSDYSI[Aib]LEKQAE[Aib]AFVQWLIKGGPSEPASLRHYYNWLTRQRY-NH2
modifications: not fully specified (residue 28); also: TFA salt
B6: Compound 55 (peptide)
peptide: Y[Aib]EGTFTSDYSI[Aib]LEKQAQ[Aib]AFVQWLIKGGPESGASLRHYYNWLTRQRY-NH2
modifications: not fully specified (residue 28); also: TFA salt
B7: Compound 67 (peptide)
peptide: Y[Aib]EGTFTSDYSI[Aib]LEKQAQ[Aib]AFVQWLIK([εLys-γGlu-γGlu-γGlu-γGlu-γGlu-C20 diacid])GGPEEPASLRHYYNWLTRQRY-NH2
modifications: also: TFA salt
B8: Compound 63 (peptide)
peptide: Y[Aib]EGTFTSDYSI[Aib]LEKQAQ[Aib]AFVQWLIK([εLys-Glu-Glu-Glu-Glu-Glu-C18 diacid])GGPESGASLRHYYNWLTRQRY-NH2
modifications: also: TFA salt
B9: Compound 53 (peptide)
peptide: YXEGTFTSDYSIXLEKQAQXAFVQWLIKGGPESGASLRHYYNWLTRQRY
modifications: Aib at 2, 13, 20; K28 side chain: C18DA-gGlu-gGlu-gGlu-gGlu-gGlu; C-terminal NH2
B10: Compound 69 (peptide)
peptide: B9 peptide with Q17E, A18K, Q24E, E32S
modifications: Aib at 2, 13, 20; K28 side chain: C20DA-gGlu-gGlu-gGlu-gGlu-gGlu-gGlu-eLys; C-terminal NH2

Each binder was assayed against human GLP-1 receptor (human, UniProt P43220 24-463) (assay: cell-based or functional assay).

Going from B1 to B2, the “EC50, CreLuc assay, 0.5% hP” value rises from 0.14 nM to 2.65 nM (19-fold).

First: B3
Second: B4
The “EC50, CreLuc assay, 0.5% hP” value of the first is 2.2-fold lower: 0.05 nM for the first, 0.11 nM for the second.

First: B5
Second: B6
The “EC50, CreLuc assay, 0.5% hP” value of the first is 2.4-fold higher: 0.22 nM for the first, 0.09 nM for the second.

Compared with B7, B8 is 4.8-fold lower in “EC50, CreLuc assay, 0.5% hP” value: 0.38 nM for the first, 0.08 nM for the second.

Going from B9 to B10, the “EC50, CreLuc assay, 0.5% hP” value rises from 0.09 nM to 1.48 nM (16-fold).

Going from B1 to B2, the “EC50, CreLuc assay, 100% hP” value rises from 6.45 nM to 49.3 nM (7.6-fold).

First: B3
Second: B4
The “EC50, CreLuc assay, 100% hP” value of the first is 2-fold lower: 2 nM for the first, 3.95 nM for the second.

First: B5
Second: B6
The “EC50, CreLuc assay, 100% hP” value of the first is 1.8-fold higher: 7.71 nM for the first, 4.17 nM for the second.

Going from B7 to B8, the “EC50, CreLuc assay, 100% hP” value falls from 27.4 nM to 3 nM (9.1-fold).

Compared with B9, B10 is 8-fold higher in “EC50, CreLuc assay, 100% hP” value: 3.46 nM for the first, 27.8 nM for the second.

These binders were tested against T1, human GIP receptor (assay: cell-based or functional assay).

First: B1
Second: B2
The “EC50, CreLuc assay, 0.5% hP” value of the first is 5.7-fold lower: 0.18 nM for the first, 1.03 nM for the second.

Compared with B3, B4 is 1.5-fold higher in “EC50, CreLuc assay, 0.5% hP” value: 0.24 nM for the first, 0.36 nM for the second.

Going from B5 to B6, the “EC50, CreLuc assay, 0.5% hP” value falls from 0.24 nM to 0.12 nM (2-fold).

Going from B7 to B8, the “EC50, CreLuc assay, 0.5% hP” value falls from 0.29 nM to 0.13 nM (2.2-fold).

Compared with B9, B10 is 6.2-fold higher in “EC50, CreLuc assay, 0.5% hP” value: 0.13 nM for the first, 0.8 nM for the second.

Compared with B1, B2 is 13-fold higher in “EC50, CreLuc assay, 100% hP” value: 1.17 nM for the first, 15.7 nM for the second.

First: B3
Second: B4
The “EC50, CreLuc assay, 100% hP” value of the first is 1.8-fold lower: 0.31 nM for the first, 0.56 nM for the second.

Going from B5 to B6, the “EC50, CreLuc assay, 100% hP” value falls from 1.4 nM to 0.82 nM (1.7-fold).

First: B7
Second: B8
The “EC50, CreLuc assay, 100% hP” value of the first is 6.9-fold higher: 6.18 nM for the first, 0.89 nM for the second.

First: B9
Second: B10
The “EC50, CreLuc assay, 100% hP” value of the first is 2.1-fold lower: 1.38 nM for the first, 2.95 nM for the second.

What follows are binders tested against T2, human neuropeptide Y2 (NPY2) receptor (assay: cell-based or functional assay).

B1 and B2 are within 1.5-fold of each other in “EC50, CreLuc assay, 0.5% hP” value: 9.74 nM for the first, 10.9 nM for the second.

Compared with B3, B4 is 1.6-fold lower in “EC50, CreLuc assay, 0.5% hP” value: 10.2 nM for the first, 6.25 nM for the second.

B5 and B6 are within 1.5-fold of each other in “EC50, CreLuc assay, 0.5% hP” value: 14 nM for the first, 16 nM for the second.

B7 and B8 are within 1.5-fold of each other in “EC50, CreLuc assay, 0.5% hP” value: 13.7 nM for the first, 15.2 nM for the second.

Going from B9 to B10, the “EC50, CreLuc assay, 0.5% hP” value falls from 13.2 nM to 8.41 nM (1.6-fold).

B1 and B2 are within 1.5-fold of each other in “EC50, CreLuc assay, 100% hP” value: 33.6 nM for the first, 24.2 nM for the second.

Going from B3 to B4, the “EC50, CreLuc assay, 100% hP” value rises from 22.8 nM to 37.6 nM (1.6-fold).

B5 and B6 are within 1.5-fold of each other in “EC50, CreLuc assay, 100% hP” value: 60.1 nM for the first, 53.4 nM for the second.

B7 and B8 are within 1.5-fold of each other in “EC50, CreLuc assay, 100% hP” value: 78.9 nM for the first, 74.3 nM for the second.

Compared with B9, B10 is 1.9-fold lower in “EC50, CreLuc assay, 100% hP” value: 50.6 nM for the first, 26.6 nM for the second.
